{"source": "paper PMC5428714", "about": "“The structures of a naturally empty cowpea mosaic virus particle and its genome-containing counterpart by cryo-electron microscopy” (Scientific Reports, 2017)", "key": {"[1]": {"biological_target": "the molecule itself", "experiment": "cryo-EM structure; purified CPMV-T particles (naturally empty capsid assembled in planta), ~1.92 mg/ml, vitrified at 4 °C; icosahedral (I3) symmetry imposed; 4.25 Å"}, "[2]": {"biological_target": "T1, Cowpea mosaic virus (CPMV) Large (L) coat protein (Cowpea mosaic virus, UniProt P03599 460-833)", "T1 construct": "Large (L) coat protein of Cowpea mosaic virus, cut from the RNA-2-encoded precursor polyprotein (VP60) by the 24 K viral proteinase; numbers count on: the mature L subunit; 60 copies each of L and S form the icosahedral capsid; also called L subunit; large coat protein subunit; source: for the cleaved eVLP map: recombinant eVLP from transient expression of VP60 and the 24 K protease", "T1 sequence": "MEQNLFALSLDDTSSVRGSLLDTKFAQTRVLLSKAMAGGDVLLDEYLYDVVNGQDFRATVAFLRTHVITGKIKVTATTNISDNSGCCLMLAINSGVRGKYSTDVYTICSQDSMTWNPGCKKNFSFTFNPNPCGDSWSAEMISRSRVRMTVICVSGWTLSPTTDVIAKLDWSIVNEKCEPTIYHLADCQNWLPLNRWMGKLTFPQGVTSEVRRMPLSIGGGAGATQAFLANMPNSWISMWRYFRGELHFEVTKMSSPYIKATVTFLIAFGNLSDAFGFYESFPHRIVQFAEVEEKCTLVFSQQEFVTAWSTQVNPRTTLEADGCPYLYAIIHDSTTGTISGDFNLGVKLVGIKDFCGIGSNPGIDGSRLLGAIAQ", "experiment": "cryo-EM structure; purified CPMV-T particles (naturally empty capsid assembled in planta), ~1.92 mg/ml, vitrified at 4 °C; icosahedral (I3) symmetry imposed; 4.25 Å", "conditions": "both partners purified"}}, "data": [{"binder": "Cowpea mosaic virus (CPMV) Small (S) coat protein with the C terminal extension (as in CPMV-T) (natural protein, Small (S) coat protein of Cowpea mosaic virus, cut from the RNA-2-encoded precursor polyprotein (VP60), with the 24 amino acid C terminal extension kept; density to Thr184 and from Pro188 to Ile197; numbers count on: the mature S subunit; Naturally empty particles are cleaved more slowly and keep the C-terminus for longer; residues after Ile197 are not seen in the map; also called S subunit; …) GPVCAEASDVYSPCMIASTPPAPFSDVTAVTFDLINGKITPVGDDNWNTHIYNPPIMNVLRTAAWKSGTIHVQLNVRGAGVKRADWDGQVFVYLRQSMNPESYDARTFVISQPGSAMLNFSFDIIGPNSGFEFAESPWANQTTWYLECVATNPRQIQQFEVNMRFDPNFRVAGNILMPPFPLSTETPPLLKFRFRDIERSKRSVMVGHTATAA", "values": [{"measurement": "binding result", "setting": "[1]", "result": "binds"}, {"measurement": "binding result", "setting": "[2]", "result": "binds"}]}]}
